Test results as given in patent US20190276534A1.

Molecular target: human PD-1 on CHO cells (human) (UniProt Q15116)
Experiment: flow cytometry, CHO cells with human PD-1 incubated with antibody 100 nM, then PD-L2-FITC; competitor PD-L2-FITC

human PD-1 on CHO cells (human), sequence (Q15116 25-288 limits assumed): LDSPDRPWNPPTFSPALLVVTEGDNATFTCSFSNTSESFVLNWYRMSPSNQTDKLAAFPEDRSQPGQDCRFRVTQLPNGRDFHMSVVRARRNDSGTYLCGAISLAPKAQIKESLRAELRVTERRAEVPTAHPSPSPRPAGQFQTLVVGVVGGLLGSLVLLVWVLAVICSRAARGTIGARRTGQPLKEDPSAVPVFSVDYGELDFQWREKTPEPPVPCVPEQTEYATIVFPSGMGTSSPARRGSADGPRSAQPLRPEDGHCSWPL

- MFI (PD-L2-FITC) in presence of the antibody: 183000
Substance: control IgG (antibody)
